To fix the notation:
B1: TRIM9 (parent)
chain: PRNSCITCPQCHRSLILDDRGLRG
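Note: lentivirally expressed fusions sorted by FACS into six bins by GFP to DsRed ratio, PSI derived from sequencing read proportions per bin multiplied by bin number.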

In this data set the parent is B1. The experiment in a line: protein stability index of a GFP-peptide fusion (GPS, HEK-293T) (PSI 1-6); higher = more stable. As to conditions: c terminus: a fixed tail appended.
Turning to PRPSCITCPQCHRSLILDDRGLRG, the protein stability index is 1.49.
Take PRSSCITCPQCHRSLILDDRGLRG: the protein stability index came to 2.5.
The same measure for PRTSCITCPQCHRSLILDDRGLRG: 1.78; for PRRSCITCPQCHRSLILDDRGLRG: 2.03.
Consider PRDSCITCPQCHRSLILDDRGLRG, for which the protein stability index was 2.34.
PRISCITCPQCHRSLILDDRGLRG: the protein stability index came out at 1.92.
As for PRCSCITCPQCHRSLILDDRGLRG, the figure is 1.8; as for PRFSCITCPQCHRSLILDDRGLRG, 1.96.
As for PRGSCITCPQCHRSLILDDRGLRG, the figure is 1.52; as for PRKSCITCPQCHRSLILDDRGLRG, 1.94.
On to PRYSCITCPQCHRSLILDDRGLRG, for which the protein stability index is 1.85.
The same measure for PRNSCATCPQCHRSLILDDRGLRG: 1.48.
The same measure for PRNSCSTCPQCHRSLILDDRGLRG: 2.02; for PRNSCCTCPQCHRSLILDDRGLRG: 2.26.
The same measure for PRNSCMTCPQCHRSLILDDRGLRG: 2.08.
For PRNSCITCPQCHRSHILDDRGLRG, the protein stability index was found to be 2.45.
As for PRNSCITCPQCHRSVILDDRGLRG, the figure is 2.24; as for PRNSCITCPQCHRSWILDDRGLRG, 2.48.
As to PRNSCITCPQCHRSMILDDRGLRG, the protein stability index amounted to 2.61.
With PRNSCITCPQCHRSNILDDRGLRG, the protein stability index was determined as 1.98.
The same measure for PRNSCITCPQCHRSEILDDRGLRG: 2.19; for PRNSCITCPQCHRSDILDDRGLRG: 2.51; for PRNSCITCPQCHRSKILDDRGLRG: 2.12.
The same measure for PRNSCITCPRCHRSLILDDRGLRG: 2.36; for PRNSCITCPNCHRSLILDDRGLRG: 2.47; for PRNSCITCPPCHRSLILDDRGLRG: 2.02.
Turning to PRNSCITCPECHRSLILDDRGLRG, the protein stability index is 1.53.
As for PRNSCITCPMCHRSLILDDRGLRG, the protein stability index stood at 2.04.
The same measure for PRNSCITCPLCHRSLILDDRGLRG: 1.89; for PRNSCITCPTCHRSLILDDRGLRG: 2.52; for PRNSCITCPGCHRSLILDDRGLRG: 4.38.
As for PRNSCITCPHCHRSLILDDRGLRG, the figure is 2.62.
As for PRNSCITCPACHRSLILDDRGLRG, the figure is 2.37; as for DRNSCITCPQCHRSLILDDRGLRG, 2.4; as for VRNSCITCPQCHRSLILDDRGLRG, 2.46.
For the variant NRNSCITCPQCHRSLILDDRGLRG, the protein stability index worked out at 2.16.
As for GRNSCITCPQCHRSLILDDRGLRG, the figure is 1.71.
The same measure for HRNSCITCPQCHRSLILDDRGLRG: 2.47; for CRNSCITCPQCHRSLILDDRGLRG: 2.61; for ARNSCITCPQCHRSLILDDRGLRG: 1.82.
Turning to PDNSCITCPQCHRSLILDDRGLRG, the protein stability index amounted to 2.34.
As for PGNSCITCPQCHRSLILDDRGLRG, the figure is 2.82.
The same measure for PMNSCITCPQCHRSLILDDRGLRG: 2.16; for PLNSCITCPQCHRSLILDDRGLRG: 2.24.
As to PSNSCITCPQCHRSLILDDRGLRG, the protein stability index was 1.94.
As for PYNSCITCPQCHRSLILDDRGLRG, the figure is 3.02; as for PRNSCITCPQCHRILILDDRGLRG, 2.93.
As for PRNSCITCPQCHRKLILDDRGLRG, the figure is 2.7.
The same measure for PRNSCITCPQCHRFLILDDRGLRG: 1.91.
Regarding PRNSCITCPQCHRALILDDRGLRG, the protein stability index stood at 2.18.
The same measure for PRNSCITCPQCHRDLILDDRGLRG: 2.4; for PRNSCITCPQCHRELILDDRGLRG: 2.6; for PRNSCITCPQCHRNLILDDRGLRG: 1.9.
As for PRNSCITCPQCHRPLILDDRGLRG, the figure is 2.52; as for PRNSCITCPQCHRVLILDDRGLRG, 3.13.
Regarding PRNSCITCPQCHRTLILDDRGLRG, the protein stability index is 2.71.
The same measure for PRNSCITCPQCHRSLLLDDRGLRG: 2.38; for PRNSCITCPQCHRSLGLDDRGLRG: 1.76.
The same measure for PRNSCITCPQCHRSLTLDDRGLRG: 1.99; for PRNSCITCPQCHRSLDLDDRGLRG: 2.64.
The same measure for PRNSCITCPQCHRSLVLDDRGLRG: 2.28; for PRNSCITCPQCHRSLCLDDRGLRG: 2.32.
With PRNSCITCPQCHRSLELDDRGLRG, the protein stability index is 3.16.
As for PRNSCITCPQCHRSLFLDDRGLRG, the figure is 1.69.
The same measure for PRNSCITCPQCHRSLPLDDRGLRG: 2.42; for PRNYCITCPQCHRSLILDDRGLRG: 2.17.
As for PRNKCITCPQCHRSLILDDRGLRG, the figure is 1.65.
With PRNPCITCPQCHRSLILDDRGLRG, the protein stability index was determined as 2.1.
As for PRNMCITCPQCHRSLILDDRGLRG, the figure is 2.89; as for PRNHCITCPQCHRSLILDDRGLRG, 2.14.
The same measure for PRNSCIKCPQCHRSLILDDRGLRG: 2.25; for PRNSCIQCPQCHRSLILDDRGLRG: 2.38; for PRNSCIVCPQCHRSLILDDRGLRG: 3.1.
As for PRNSCIPCPQCHRSLILDDRGLRG, the figure is 1.72.
As for PRNSCITCPQCVRSLILDDRGLRG, the protein stability index is 3.37.
As for PRNSCITCPQCPRSLILDDRGLRG, the figure is 2.52.
The same measure for PRNSCITCPQCTRSLILDDRGLRG: 1.38; for PRNSCITCPQCMRSLILDDRGLRG: 2.78.
Consider PRNSCITCPQCLRSLILDDRGLRG, for which the protein stability index was determined as 3.13.
Take PRNSCITCPQCQRSLILDDRGLRG: the protein stability index amounted to 1.96.
As for PRNSCITCPQCKRSLILDDRGLRG, the figure is 2.69.
The same measure for PRNSCITCPQCFRSLILDDRGLRG: 2.2; for PRNSCITCPQCYRSLILDDRGLRG: 2.46; for PRNSCITCPQCARSLILDDRGLRG: 2.53.
The same measure for PRNSCITCPQCHRSLILDDRGLVG: 1.93.
PRNSCITCPQCHRSLILDDRGLHG: the protein stability index was found to be 2.05.
In the case of PRNSCITCPQCHRSLILDDRGLLG, the protein stability index came out at 2.48.
As for PRNSCITCPQCHRSLILDDRGLPG, the figure is 2.42.
The same measure for PRNSCITCPQCHRSLILDDRGLAG: 2.5.
The same measure for PRNSCITCPQCHRSLILDDRGLEG: 3.21; for PRNSCITCPQCHRSLILDDRGLDG: 2.96; for PRNSCITCPQCHRSLILDDRGLKG: 2.2.
For the variant PRNSCITCPQCHRSLILDDRGLWG, the protein stability index was 1.25.
As for PRNSCITCPQCHRSLILDDRGLNG, the figure is 2.56.

Source of the values: the supplement of paper PMC10567573.
